The text below walks through data of patent US20220332804A1 (CSL INNOVATION, published 2022).

Assay in all cases: SPR, antibody captured, C2 as analyte;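 also: biacore SPR at 37 °C, anti-C2 mAbs captured via goat anti-human IgG on CM5 chips, double-referenced sensorgrams fit to a 1:1 kinetic or steady-state model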
One experiment has as its target T1, human C2 N403A (human, UniProt P06681 21-752).
T1 sequence: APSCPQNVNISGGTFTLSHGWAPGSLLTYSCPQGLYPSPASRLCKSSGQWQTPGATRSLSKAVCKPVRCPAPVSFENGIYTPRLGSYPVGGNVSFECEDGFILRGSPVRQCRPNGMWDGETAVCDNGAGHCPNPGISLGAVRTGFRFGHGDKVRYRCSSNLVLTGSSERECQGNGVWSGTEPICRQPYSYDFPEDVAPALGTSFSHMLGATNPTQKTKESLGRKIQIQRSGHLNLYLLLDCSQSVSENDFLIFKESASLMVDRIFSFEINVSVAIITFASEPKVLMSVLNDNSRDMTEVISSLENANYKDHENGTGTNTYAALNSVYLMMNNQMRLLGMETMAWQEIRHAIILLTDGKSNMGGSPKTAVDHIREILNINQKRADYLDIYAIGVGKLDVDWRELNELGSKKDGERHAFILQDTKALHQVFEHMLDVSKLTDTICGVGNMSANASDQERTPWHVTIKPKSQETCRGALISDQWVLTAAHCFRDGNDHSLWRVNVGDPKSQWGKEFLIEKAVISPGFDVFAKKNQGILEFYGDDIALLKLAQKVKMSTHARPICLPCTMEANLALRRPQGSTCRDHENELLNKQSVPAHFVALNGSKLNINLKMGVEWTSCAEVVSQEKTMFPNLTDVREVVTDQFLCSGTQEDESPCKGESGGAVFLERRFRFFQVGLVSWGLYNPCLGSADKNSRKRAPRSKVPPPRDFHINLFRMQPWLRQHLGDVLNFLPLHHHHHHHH

A further experiment deals with T2, human C2 R493A (human, UniProt P06681 21-752).
T2 sequence: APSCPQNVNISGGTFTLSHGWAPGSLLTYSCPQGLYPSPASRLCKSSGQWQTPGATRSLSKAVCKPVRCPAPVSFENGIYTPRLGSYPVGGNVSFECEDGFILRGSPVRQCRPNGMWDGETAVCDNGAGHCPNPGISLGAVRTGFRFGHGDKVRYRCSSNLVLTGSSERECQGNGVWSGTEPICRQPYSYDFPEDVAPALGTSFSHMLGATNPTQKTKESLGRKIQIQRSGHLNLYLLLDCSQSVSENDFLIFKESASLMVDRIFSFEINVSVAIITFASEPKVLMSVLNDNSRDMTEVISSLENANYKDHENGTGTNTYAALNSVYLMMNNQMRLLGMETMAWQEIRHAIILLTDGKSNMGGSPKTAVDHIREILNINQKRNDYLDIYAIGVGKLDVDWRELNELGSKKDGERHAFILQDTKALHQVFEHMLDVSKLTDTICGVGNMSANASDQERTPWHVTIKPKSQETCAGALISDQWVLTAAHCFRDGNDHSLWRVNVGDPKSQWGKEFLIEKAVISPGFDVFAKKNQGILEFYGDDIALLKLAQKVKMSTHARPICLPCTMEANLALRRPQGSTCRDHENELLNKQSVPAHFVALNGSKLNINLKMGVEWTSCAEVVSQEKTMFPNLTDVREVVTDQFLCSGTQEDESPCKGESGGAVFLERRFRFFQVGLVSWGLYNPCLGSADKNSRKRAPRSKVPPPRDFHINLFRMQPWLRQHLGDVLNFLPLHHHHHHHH

The target in the next experiment is T3, human C2 K531A (human, UniProt P06681 21-752).
T3 sequence: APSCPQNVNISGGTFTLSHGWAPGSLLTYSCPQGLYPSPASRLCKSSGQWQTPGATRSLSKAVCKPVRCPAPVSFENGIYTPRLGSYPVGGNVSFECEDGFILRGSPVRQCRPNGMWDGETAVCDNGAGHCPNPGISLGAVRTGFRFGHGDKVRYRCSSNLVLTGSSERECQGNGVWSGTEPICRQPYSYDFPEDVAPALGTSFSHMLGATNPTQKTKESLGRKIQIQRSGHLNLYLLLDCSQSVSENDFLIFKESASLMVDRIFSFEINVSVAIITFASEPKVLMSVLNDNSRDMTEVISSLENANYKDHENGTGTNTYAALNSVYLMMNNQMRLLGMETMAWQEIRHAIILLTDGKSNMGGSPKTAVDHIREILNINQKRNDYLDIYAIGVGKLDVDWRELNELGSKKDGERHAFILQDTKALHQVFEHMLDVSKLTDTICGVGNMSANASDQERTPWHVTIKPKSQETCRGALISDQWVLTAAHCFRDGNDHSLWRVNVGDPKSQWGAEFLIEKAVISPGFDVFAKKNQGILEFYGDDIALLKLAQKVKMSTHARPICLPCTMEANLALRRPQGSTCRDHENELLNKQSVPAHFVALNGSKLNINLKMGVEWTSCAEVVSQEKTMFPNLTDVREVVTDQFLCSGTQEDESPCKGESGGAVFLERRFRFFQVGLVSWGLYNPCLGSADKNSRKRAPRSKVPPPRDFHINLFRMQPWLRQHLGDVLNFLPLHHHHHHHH

For the next experiment, the target named is T4, human C2 K415A (human, UniProt P06681 21-752).
T4 sequence: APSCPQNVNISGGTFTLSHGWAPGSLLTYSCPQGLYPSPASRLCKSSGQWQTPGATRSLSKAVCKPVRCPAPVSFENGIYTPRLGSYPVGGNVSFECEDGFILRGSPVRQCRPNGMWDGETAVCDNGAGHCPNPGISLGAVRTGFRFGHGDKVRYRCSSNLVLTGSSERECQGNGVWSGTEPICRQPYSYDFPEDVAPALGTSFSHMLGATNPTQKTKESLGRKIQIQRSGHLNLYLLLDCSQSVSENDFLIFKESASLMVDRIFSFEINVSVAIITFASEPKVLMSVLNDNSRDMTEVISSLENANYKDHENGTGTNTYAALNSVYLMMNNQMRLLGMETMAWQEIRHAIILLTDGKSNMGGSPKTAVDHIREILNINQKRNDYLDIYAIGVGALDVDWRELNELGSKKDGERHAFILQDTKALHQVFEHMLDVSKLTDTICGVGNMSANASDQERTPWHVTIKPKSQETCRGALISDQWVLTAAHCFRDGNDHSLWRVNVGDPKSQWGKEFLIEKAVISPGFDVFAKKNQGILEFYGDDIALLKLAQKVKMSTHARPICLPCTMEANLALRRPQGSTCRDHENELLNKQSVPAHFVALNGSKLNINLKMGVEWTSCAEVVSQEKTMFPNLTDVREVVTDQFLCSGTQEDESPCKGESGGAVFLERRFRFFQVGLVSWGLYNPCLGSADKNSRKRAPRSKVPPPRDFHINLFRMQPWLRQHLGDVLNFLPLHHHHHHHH

B1: RF16-226 (antibody, human IgG4 S228P, lambda)
heavy: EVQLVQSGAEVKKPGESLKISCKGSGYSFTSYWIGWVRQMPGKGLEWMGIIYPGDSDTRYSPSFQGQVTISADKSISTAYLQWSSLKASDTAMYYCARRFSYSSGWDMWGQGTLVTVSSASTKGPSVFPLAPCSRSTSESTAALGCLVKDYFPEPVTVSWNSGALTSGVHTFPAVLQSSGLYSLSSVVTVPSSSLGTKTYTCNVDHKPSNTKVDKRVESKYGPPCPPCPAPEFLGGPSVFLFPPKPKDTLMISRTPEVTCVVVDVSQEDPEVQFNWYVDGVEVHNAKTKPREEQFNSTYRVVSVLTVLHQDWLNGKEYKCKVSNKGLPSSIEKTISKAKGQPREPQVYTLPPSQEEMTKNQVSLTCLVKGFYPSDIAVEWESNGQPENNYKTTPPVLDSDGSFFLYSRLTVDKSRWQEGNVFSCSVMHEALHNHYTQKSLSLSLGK
light: SYELTQPPSVSVSPGQTARITCSGDALTSKYVAWYQQKSGLAPLLVIYEDTRRPSGIPAKFSGSSSGSVATLTISGAHGDDEADYYCYSTDASGHQRVFGGGTKLTVLSQPKAAPSVTLFPPSSEELQANKATLVCLISDFYPGAVTVAWKADGSPVKAGVETTKPSKQSNNKYAASSYLSLTPEQWKSHRSYSCQVTHEGSTVEKTVAPTECS
notes: pH-dependent anti-C2 antibody from a phage display library; also called WT
Usually Kd stands for the constant that tells how readily two partners part at equilibrium. A higher Kd goes with a looser complex. With B1, the Kd is 10.5 nM with human C2 N403A, 24.3 nM with human C2 R493A, 12.1 nM with human C2 K531A and 11.7 nM with human C2 K415A.
